# According to patent US20190367631A1 (Regeneron, published 2019):
# T1: human MSR1 extracellular domain expressed with a N-terminal nonahistidine tag (His9-hMSR1); R&D Systems, Cat … (human, UniProt P21757 77-451)
# T1 construct: extracellular domain; Bought reagent; also called His-hMSR1; 9xHis-hMSR1
# T1 sequence: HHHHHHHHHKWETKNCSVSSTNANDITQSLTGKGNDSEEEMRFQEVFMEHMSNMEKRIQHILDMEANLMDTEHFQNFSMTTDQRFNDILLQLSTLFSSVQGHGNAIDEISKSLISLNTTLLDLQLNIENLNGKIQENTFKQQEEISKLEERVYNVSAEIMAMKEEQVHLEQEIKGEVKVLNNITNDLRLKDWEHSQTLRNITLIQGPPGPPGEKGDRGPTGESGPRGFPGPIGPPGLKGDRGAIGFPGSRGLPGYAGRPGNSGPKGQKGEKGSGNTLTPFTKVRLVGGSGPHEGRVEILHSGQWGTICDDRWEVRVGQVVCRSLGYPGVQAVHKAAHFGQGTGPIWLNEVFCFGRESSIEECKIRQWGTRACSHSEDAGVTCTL
# B1: H1H27756P-N297Q (antibody, human IgG1, V domains shown)
# VH: QVQLVESGGGVVQPGRSLRLSCAASGFTFSNYDMHWVRQAPGKGLEWMAVISYDGINKYYADSVKGRFTISRDNSKNTLYLQMNSLRAEDTAVYYCAKGTYSWYFDLWGRGTLVTVSS
# VL: not shown
# notes: human IgG1 Fc with N297Q (EU)
# B2: H1H27756P-N297Q-LP1 (antibody, human IgG1, V domains shown)
# VH: QVQLVESGGGVVQPGRSLRLSCAASGFTFSNYDMHWVRQAPGKGLEWMAVISYDGINKYYADSVKGRFTISRDNSKNTLYLQMNSLRAEDTAVYYCAKGTYSWYFDLWGRGTLVTVSS
# VL: not shown
# modifications: LXR agonist linker-payload LP1 clicked to azido-PEG3-amine on Q295 and Q297 (EU) of the heavy chain constant region
# notes: antibody-drug conjugate; human IgG1 Fc with N297Q (EU); also called H1H27756P-LP1
# B3: H1H27751P-N297Q (antibody, human IgG1, V domains shown)
# VH: EVQLVESGGGLVQPGGSLRLSCAASGFTFSNYAMHWVRQAPGKGLEYVSAISSNGGSTYYADSVKGRITISRDNSKNTLYLQMGSLRAEDMAVYYCARGRPYYYYFGMDVWGQGTTVTVSS
# VL: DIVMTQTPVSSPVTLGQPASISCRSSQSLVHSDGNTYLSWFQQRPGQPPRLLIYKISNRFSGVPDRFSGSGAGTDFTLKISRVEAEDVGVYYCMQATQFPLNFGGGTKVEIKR
# notes: human IgG1 Fc with N297Q (EU)
# B4: H1H27751P-N297Q-LP1 (antibody, human IgG1, V domains shown)
# VH: EVQLVESGGGLVQPGGSLRLSCAASGFTFSNYAMHWVRQAPGKGLEYVSAISSNGGSTYYADSVKGRITISRDNSKNTLYLQMGSLRAEDMAVYYCARGRPYYYYFGMDVWGQGTTVTVSS
# VL: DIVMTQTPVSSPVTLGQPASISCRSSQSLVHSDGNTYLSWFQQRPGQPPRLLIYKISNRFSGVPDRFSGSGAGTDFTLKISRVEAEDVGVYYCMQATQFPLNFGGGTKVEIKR
# modifications: LXR agonist linker-payload LP1 clicked to azido-PEG3-amine on Q295 and Q297 (EU) of the heavy chain constant region
# notes: antibody-drug conjugate; human IgG1 Fc with N297Q (EU)
# B5: H1H27759P-N297Q (antibody, human IgG1, V domains shown)
# VH: EVQLVESGGGFVQPGGSLRLSCAASGFTFSSYAMSWVRQAPGKGLEWVSAISGTGSNTYYADSVKGRFTISRDNSKNTLYLQMNSLRAEDTAVYYCAKDRVTTVTYYFDYWGQGTLVTVSS
# VL: not shown
# notes: human IgG1 Fc with N297Q (EU); also called H1H27759P2-N297Q
# B6: H1H27759P-N297Q-LP1 (antibody, human IgG1, V domains shown)
# VH: EVQLVESGGGFVQPGGSLRLSCAASGFTFSSYAMSWVRQAPGKGLEWVSAISGTGSNTYYADSVKGRFTISRDNSKNTLYLQMNSLRAEDTAVYYCAKDRVTTVTYYFDYWGQGTLVTVSS
# VL: not shown
# modifications: LXR agonist linker-payload LP1 clicked to azido-PEG3-amine on Q295 and Q297 (EU) of the heavy chain constant region
# notes: as for B4
# B7: H1H27749P-N297Q-LP1 (antibody, human IgG1, V domains shown)
# VH: QVQLQESGPGLVKPSETLSLTCTVSDGSISSYYWSWIRQPPGRGLEWIGFIYYSGSTSYNPSLKSRVTISVDTSMSQFSLKLRSVTAADTAVYYCARGSPFDYWGPGTLVTVSS
# VL: EIVLTQSPGTLSLSPGERATLSCRASQSVSSSYLAWYQQRPGQAPSLLISGASRRATGIPDRFSGSGSGTDFTLTIRRLEPEDFAMYYCQQYGSSPPTFGGGTKVEIKR
# modifications: LXR agonist linker-payload LP1 clicked to azido-PEG3-amine on Q295 and Q297 (EU) of the heavy chain constant region
# notes: antibody-drug conjugate; human IgG1 Fc with N297Q (EU); also called H1H27749P-LP1
# B8: H1H27760P-N297Q (antibody, human IgG1, V domains shown)
# VH: EVQLVESGGGLVQPGRSLRLSCAASGFTFDAYAMHWVRQAPGKGLEWVSGISWNSGSIGYADSVKGRFTISRDNAKNSLYLQMNSLREEDTALYYCAKDKILELYYYGMDVWGQGTTVTVSS
# VL: not shown
# notes: human IgG1 Fc with N297Q (EU); also called H1H27760P2-N297Q
# B9: H1H27760P-N297Q-LP1 (antibody, human IgG1, V domains shown)
# VH: EVQLVESGGGLVQPGRSLRLSCAASGFTFDAYAMHWVRQAPGKGLEWVSGISWNSGSIGYADSVKGRFTISRDNAKNSLYLQMNSLREEDTALYYCAKDKILELYYYGMDVWGQGTTVTVSS
# VL: not shown
# modifications: LXR agonist linker-payload LP1 clicked to azido-PEG3-amine on Q295 and Q297 (EU) of the heavy chain constant region
# notes: as for B4
# B10: H1H27731P-N297Q (antibody, V domains shown)
# VH: QLQLQESGPGLVKPSETLSLTCTVSGGSISRISYYWGWIRQPPGKGLEWIGSIYDSGSTYYNPSLKSRVTISIDTSKNQFSLKLSSVTAADTAVYYCVRYSSSSAFAFDYWGQGTLVTVSS
# VL: DIQMTQSPSSVSASVGDRVTITCRASQGISSWLAWYQQKPGKAPKLLIYAASSLQSGVPSRFSGSGSGTDFTLTISSLQPEDFATYYCQQANSFPFTFGPGTKVDIKR
# notes: human IgG1 Fc with N297Q (EU)
# B11: H1H27747P-N297Q-LP1 (antibody, human IgG1, V domains shown)
# VH: QVQLVESGGAVVQPGRSLRLSCAASGFTFSYYGMHWVRQAPGKGLEWVAVISYDGSKKYYADSVKGRFTISRDNSKNTLYLQMNSLRAEDTAVYYCAKDLTVDFYYGMDVWGQGTTVTVSS
# VL: DIQMTQSPSSVSASVGDRVTITCRASQGISSWLAWYQQKPGKAPKLLIYATSSLQSGAPSRFSGSGSGTDFTLTISSLQPEDFATYFCQQANSFPYTFGQGTKLEIKR
# modifications: LXR agonist linker-payload LP1 clicked to azido-PEG3-amine on Q295 and Q297 (EU) of the heavy chain constant region
# notes: antibody-drug conjugate; human IgG1 Fc with N297Q (EU); also called H1H27747P-LP1
# Molecular target: T1, human MSR1 extracellular domain …
# Assay: SPR Biacore T200, 25 C, antibody captured by anti-human Fc, His9-hMSR1 injected;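 further: running buffer HBS-ET pH 7.4, rates from sensorgrams fitted to a 1:1 model including mass transport limitation, KD and half-life derived from the kinetic constants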
# Experimental: All binding studies were performed in 10 mM HEPES, 300 mM NaCl, 3 mM EDTA, and 0.05% v/v Surfactant Tween-20, pH 7.4 (HBS-ET) running buffer at 25° C.
# The association rate (kₐ) and dissociation rate (kd) were determined by fitting the real-time binding sensorgrams to a 1:1 binding model with mass transport limitation using Scrubber 2.0c curve-fitting software. Binding dissociation equilibrium constant (KD) and dissociative half-life (t½) were calculated from the kinetic rates as:
Binder,Kd [nM],t½ [h],koff [s⁻¹],kon [M⁻¹ s⁻¹]
B1,1.65,1.62,–,–
B2,1.76,1.75,0.00011,62700
B3,0.833,1.1,0.000175,210000
B4,0.664,1.27,0.000152,229000
B5,4.23,0.443,0.000435,103000
B6,4.57,0.323,0.000595,130000
B7,–,–,–,140000
B8,1.66,0.503,–,–
B9,1.67,0.443,0.000434,259000
B10,≤ 0.0855,19.3,≤ 1e-05,117000
B11,1.49,0.948,0.000203,136000
